Reference: patent US20020160955A1 (published 2002)

Key:
Experiment in all cases: competitive phage ELISA
[1] = biological target: T1, IGF-I D12A (G1S-A70V background) displayed on phage (human; bacteriophage M13)
T1 construct: monovalent M13 phage display
T1 chain: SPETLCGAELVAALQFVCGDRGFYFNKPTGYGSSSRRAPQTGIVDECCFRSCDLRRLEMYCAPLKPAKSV
Protocol: (§1) Phage particles were harvested and resuspended in PBS buffer as described in Lowman, H. B., “Phage Display of Peptide Libraries on Protein Scaffolds,” in Cabilly, S. (ed.), Combinatorial Peptide Library Protocols (Humana Press Inc.: Totowa, N.J., 1998), pp. 249-264. Then phage concentrations were normalized to yield a maximal ELISA signal of 0.2-0.4 for each mutant (Lowman, in Cabilly, S. (ed.), supra). Threefold serial dilutions of soluble competitor were prepared on non-absorbent microtiter plates (Nunc, F, 96 wells) with binding buffer (0.5% TWEEN™ 20/PBS) containing phage at the previously-determined concentrations. […] After blocking, the plates containing immobilized target were washed with 0.05% TWEEN™/PBS buffer and subsequently incubated with 80 μl/well of the premixed phage-competitor solutions for 1 hour at room temperature. After washing, bound phage was detected with 80 μl/well of a solution containing a primary rabbit anti-phage polyclonal antibody and a secondary goat anti-rabbit monoclonal antibody-horseradish peroxidase conjugate in 0.5% TWEEN 20™/PBS. o-Phenylenediamine (Sigma) and tetramethylbenzidine (Kirkegaard and Perry) were used as chromogenic substrates, resulting in product detection at 492 and 450 nm, respectively. IC₅₀ values were determined by fitting the binding data to a generic saturation curve (Lowman, in Cabilly, S. (ed.), supra). […] Numbers in Table I represent mean +standard deviation of individually assessed IC₅₀ values.
(§2) At least two different clones of every mutant were tested.

[2] = biological target: T2, IGF-I F16A (G1S-A70V background) displayed on phage (human; bacteriophage M13)
T2 construct: monovalent M13 phage display
T2 chain: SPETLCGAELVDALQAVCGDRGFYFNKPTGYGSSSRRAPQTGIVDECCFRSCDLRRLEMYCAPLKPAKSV
Protocol: as §1, §2

[3] = biological target: T3, IGF-I D20A (G1S-A70V background) displayed on phage (human; bacteriophage M13, not fully specified; Displayed monovalently on M13 phage as a C-terminal fusion to the gene III fragment, which is left out of the letters.)
T3 construct: monovalent M13 phage display; not shown: Display carrier: M13 gene III fragment (residues 249-406) and its junction
T3 chain: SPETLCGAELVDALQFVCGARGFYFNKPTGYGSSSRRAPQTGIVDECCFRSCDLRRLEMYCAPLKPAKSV
Protocol: as §1, §2

[4] = biological target: T4, IGF-I F23A (G1S-A70V background) displayed on phage (human; bacteriophage M13, not fully specified; Displayed monovalently on M13 phage as a C-terminal fusion to the gene III fragment, which is left out of the letters.)
T4 construct: monovalent M13 phage display; not shown: Display carrier: M13 gene III fragment (residues 249-406) and its junction
T4 chain: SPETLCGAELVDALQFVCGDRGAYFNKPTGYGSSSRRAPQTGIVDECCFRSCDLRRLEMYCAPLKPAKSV
Protocol: as §1, §2

[5] = biological target: T5, IGF-I K27A (G1S-A70V background) displayed on phage (human; bacteriophage M13, not fully specified; Displayed monovalently on M13 phage as a C-terminal fusion to the gene III fragment, which is left out of the letters.)
T5 construct: monovalent M13 phage display; not shown: Display carrier: M13 gene III fragment (residues 249-406) and its junction
T5 chain: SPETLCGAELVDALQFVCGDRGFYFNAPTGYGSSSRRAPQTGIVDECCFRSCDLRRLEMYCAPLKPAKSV
Protocol: as §1, §2

[6] = biological target: T6, IGF-I P28A (G1S-A70V background) displayed on phage (human; bacteriophage M13)
T6 construct: monovalent M13 phage display; not shown: M13 gene III fragment (residues 249-406, display partner) and the junction to it
T6 chain: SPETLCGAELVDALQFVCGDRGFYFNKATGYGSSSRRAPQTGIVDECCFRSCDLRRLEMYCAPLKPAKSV
Protocol: as §1, §2

[7] = biological target: T7, IGF-I T29A (G1S-A70V background) displayed on phage (human; bacteriophage M13)
T7 construct: monovalent M13 phage display; not shown: M13 gene III fragment (residues 249-406, display partner) and the junction to it
T7 chain: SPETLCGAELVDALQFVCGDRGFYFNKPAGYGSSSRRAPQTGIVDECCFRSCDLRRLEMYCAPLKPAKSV
Protocol: as §1, §2

[8] = biological target: T8, IGF-I Q40A (G1S-A70V background) displayed on phage (human; bacteriophage M13)
T8 construct: monovalent M13 phage display
T8 chain: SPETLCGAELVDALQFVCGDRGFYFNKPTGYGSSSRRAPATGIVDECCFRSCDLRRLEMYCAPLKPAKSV
Protocol: as §1, §2

[9] = biological target: T9, IGF-I T41A (G1S-A70V background) displayed on phage (human; bacteriophage M13)
T9 construct: monovalent M13 phage display
T9 chain: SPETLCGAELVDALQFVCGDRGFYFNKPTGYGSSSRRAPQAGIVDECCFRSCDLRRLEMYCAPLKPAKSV
Protocol: as §1, §2

[10] = biological target: T10, IGF-I L57A (G1S-A70V background) displayed on phage (human; bacteriophage M13)
T10 construct: monovalent M13 phage display; not shown: M13 gene III protein fragment (residues 249-406), the phage display carrier, and its junction to IGF-I
T10 chain: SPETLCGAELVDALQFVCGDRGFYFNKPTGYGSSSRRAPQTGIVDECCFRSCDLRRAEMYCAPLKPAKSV
Protocol: as §1, §2

[11] = biological target: T11, IGF-I E58A (G1S-A70V background) displayed on phage (human; bacteriophage M13)
T11 construct: monovalent M13 phage display; not shown: M13 gene III protein fragment (residues 249-406), the phage display carrier, and its junction to IGF-I
T11 chain: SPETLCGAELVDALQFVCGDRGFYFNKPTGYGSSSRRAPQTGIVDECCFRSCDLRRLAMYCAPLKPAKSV
Protocol: as §1, §2

[12] = biological target: T12, IGF-I M59A (G1S-A70V background) displayed on phage (human; bacteriophage M13)
T12 construct: monovalent M13 phage display; not shown: M13 gene III protein fragment (residues 249-406), the phage display carrier, and its junction to IGF-I
T12 chain: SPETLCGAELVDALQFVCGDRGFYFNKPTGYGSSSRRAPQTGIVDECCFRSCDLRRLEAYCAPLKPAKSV
Protocol: as §1, §2

[13] = biological target: T13, IGF-I Y60A (G1S-A70V background) displayed on phage (human; bacteriophage M13)
T13 construct: monovalent M13 phage display; not shown: M13 gene III protein fragment (residues 249-406), the phage display carrier, and its junction to IGF-I
T13 chain: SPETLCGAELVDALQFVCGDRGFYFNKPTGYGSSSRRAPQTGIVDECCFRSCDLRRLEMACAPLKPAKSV
Protocol: as §1, §2

[14] = biological target: T14, IGF-I P63A (G1S-A70V background) displayed on phage (human; bacteriophage M13)
T14 construct: monovalent M13 phage display; not shown: M13 gene III protein fragment (residues 249-406), the phage display carrier, and its junction to IGF-I
T14 chain: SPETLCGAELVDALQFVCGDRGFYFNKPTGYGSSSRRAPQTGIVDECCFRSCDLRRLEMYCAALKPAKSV
Protocol: as §1, §2

B1: human IGFBP-1 (other, UniProt P08833 26-259, looked up)
chain: APWQCAPCSAEKLALCPPVSASCSEVTRSAGCGCCPMCALPLGAACGVATARCARGLSCRALPGEQQPLHALTRGQGACVQESDASAPHAAEAGSPESPESTEITEEELLDNFHLMAPSEEDHSILWDAISTYDGSKALHVTNIKKWKEPCRIELYRVVESLAKAQETSGEEISKFYLPNCNKNGFYHSRQCETSMDGEAGLCWCVYPWNGKRIPGSPEIRGDPNCQIYFNVQN
notes: secreted recombinant protein purified from conditioned medium
B1 gave an IC50 [1] of 4.3 nM, an IC50 [2] of 57.8 nM and an IC50 [3] of 8.4 nM. The IC50 [4] was 10.9 nM, the IC50 [5] was 12.8 nM and the IC50 [6] was 9.3 nM. The IC50 [7] was 7.3 nM, the IC50 [8] was 10.2 nM and the IC50 [9] was 13.7 nM. It also gave an IC50 [10] of 21.8 nM, an IC50 [11] of 11.9 nM and an IC50 [12] of 13.1 nM. The IC50 [13] was 6.6 nM and the IC50 [14] was > 1000 nM.
